Laboratory results taken from patent publication US20220162312A1 (WUXI BIOLOGICS IRELAND, published 2022).

Assays:
[1] = biological target: T1, CD20 on Raji cells (CD20+/CD3- cells) (human, UniProt P11836 1-297); assay: cell-based or functional assay
T1 sequence (looked up): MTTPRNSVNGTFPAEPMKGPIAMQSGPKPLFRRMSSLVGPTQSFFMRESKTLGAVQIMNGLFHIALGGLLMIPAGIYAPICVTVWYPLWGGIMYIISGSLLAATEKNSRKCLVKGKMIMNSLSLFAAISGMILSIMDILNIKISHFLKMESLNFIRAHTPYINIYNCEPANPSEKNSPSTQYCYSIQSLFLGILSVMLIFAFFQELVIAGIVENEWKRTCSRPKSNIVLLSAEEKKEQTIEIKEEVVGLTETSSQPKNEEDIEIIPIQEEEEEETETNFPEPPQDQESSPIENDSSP

[2] = biological target: T1, CD20 on Raji cells (CD20+/CD3- cells); assay: cell-based or functional assay; remark: listed apart in the source
[3] = biological target: T1, CD20 on Raji cells (CD20+/CD3- cells); assay: cell-based or functional assay; remark: listed apart in the source
[4] = biological target: T1, CD20 on Raji cells (CD20+/CD3- cells); assay: cell-based or functional assay; remark: listed apart in the source
[5] = biological target: T2, CD3 on Jurkat cells (CD3+/CD20- cells) (human, UniProt P07766 23-207; P04234 22-171; P09693 23-182); assay: flow cytometry on Jurkat cells (CD3+/CD20-)
T2 construct: whole, on cells; also called human CD3; Jurkat 2B8
Experimental: (§1) The binding of W3278 BsAb to target cells was determined by flow cytometry. Briefly, 1×10⁵/well of target cells (CD3+/CD20− cells or CD20+/CD3− cells) were incubated with serial dilutions of W3278 BsAb or human IgG4 isotype control antibody at 4° C. for 60 minutes. After incubation, cells were washed twice with cold 1% BSA/1×PBS and Alexa Fluor647 conjugated Goat anti-human IgG Fc (Jackson-109-605-098) was then added and incubated for 30 minutes at 4° C. After washing twice, the geometric mean fluorescence (MFI) of stained cells was measured using a FACS Canto II cytometer (BD Biosciences). Wells containing no antibody or fluorescent secondary antibody only were used to establish background fluorescence. The EC₅₀ values of cell binding were determined using GraphPad Prism 5 software (GraphPad Software, La Jolla, Calif.) with values calculated using a four-parameter non-linear regression analysis.

[6] = biological target: T1, CD20 on Raji cells (CD20+/CD3- cells); assay: flow cytometry on Raji cells (CD20+/CD3-)
Experimental: as §1

T2 sequence (P07766 23-207, chain 1 of 3): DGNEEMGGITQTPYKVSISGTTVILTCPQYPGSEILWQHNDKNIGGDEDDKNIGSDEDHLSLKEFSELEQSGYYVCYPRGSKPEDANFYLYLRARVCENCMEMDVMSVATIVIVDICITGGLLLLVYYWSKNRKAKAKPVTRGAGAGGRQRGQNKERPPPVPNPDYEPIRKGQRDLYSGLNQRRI
T2 sequence (P04234 22-171, chain 2 of 3): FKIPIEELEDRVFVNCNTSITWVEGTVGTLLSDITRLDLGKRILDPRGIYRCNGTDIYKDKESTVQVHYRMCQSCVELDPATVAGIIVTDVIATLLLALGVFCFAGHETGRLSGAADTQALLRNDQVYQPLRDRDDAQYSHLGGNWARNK
T2 sequence (P09693 23-182, chain 3 of 3): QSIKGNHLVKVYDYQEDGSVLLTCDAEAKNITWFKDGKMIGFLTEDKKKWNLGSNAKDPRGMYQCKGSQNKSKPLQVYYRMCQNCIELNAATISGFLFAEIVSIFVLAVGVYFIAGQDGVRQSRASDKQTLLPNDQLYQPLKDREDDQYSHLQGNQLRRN

Binder	cytotoxicity EC50, NAMALWA cells, CD8+ T cells as effectors [1] [pM]	cytotoxicity EC50, Raji cells, CD8+ T cells as effectors [1] [pM]	cytotoxicity EC50, Ramos cells, CD8+ T cells as effectors [1] [pM]	T cell CD69 expression EC50 (Table 5A as titled), CD4+/Raji [2] [pM]	T cell CD69 expression EC50 (Table 5A as titled), CD8+/Raji [2] [pM]	CD4+ T cell IL-2 release EC50, with Raji cells [3] [pM]	CD4+ T cell TNF-a release EC50, with Raji cells [3] [pM]	T cell CD69 expression EC50 (Table 5B), CD4+/Raji [4] [pM]	T cell CD69 expression EC50 (Table 5B), CD8+/Raji [4] [pM]	EC50 [5] [pM]	TOP MFI [5] [MFI]	EC50 [6] [pM]	TOP MFI [6] [MFI]
W3278-U2T3.F18R-1.uIgG4.SP (bispecific antibody) heavy 1: QVQLQQPGAELVKPGASVKMSCKASGYTFTSYNMHWVKQTPGRGLEWIGAIYPGNGDTSYNQKFKGKATLTADKSSSTAYMQLSSLTSEDSAVYYCARSTYYGGDWYFNVWGAGTTVTVSAASTKGPSVFPLAPCSRSTSESTAALGCLVKDYFPEPVTVSWNSGALTSGVHTFPAVLQSSGLYSLSSVVTVPSSSLGTKTYTCNVDHKPSNTKVDKRVGGGGSGGGGSQVQLVQSGAEVKKPGSSVKVSCKASGFAFTDYYIHWVRQAPGQGLEWMGWISPGNVNTKYNENFKGRVTITADKSTSTAYMELSSLRSEDTAVYYCARDGYSLYYFDYWGQGTLVTVLEDLKNVFPPEVAVFEPSEAEISHTQKATLVCLATGFYPDHVELSWWVNGKEVHSGVCTDPQPLKEQPALQDSRYALSSRLRVSATFWQNPRNHFRCQVQFYGLSENDEWTQDRAKPVTQIVSAEAWGRYGPPCPPCPAPEFLGGPSVFLFPPKPKDTLMISRTPEVTCVVVDVSQEDPEVQFNWYVDGVEVHNAKTKPREEQFNSTYRVVSVLTVLHQDWLNGKEYKCKVSNKGLPSSIEKTISKAKGQPREPQVYTLPPCQEEMTKNQVSLWCLVKGFYPSDIAVEWESNGQPENNYKTTPPVLDSDGSFFLYSRLTVDKSRWQEGNVFSCSVMHEALHNHYTQKSLSLSLG heavy 2: QVQLQQPGAELVKPGASVKMSCKASGYTFTSYNMHWVKQTPGRGLEWIGAIYPGNGDTSYNQKFKGKATLTADKSSSTAYMQLSSLTSEDSAVYYCARSTYYGGDWYFNVWGAGTTVTVSAASTKGPSVFPLAPCSRSTSESTAALGCLVKDYFPEPVTVSWNSGALTSGVHTFPAVLQSSGLYSLSSVVTVPSSSLGTKTYTCNVDHKPSNTKVDKRVESKYGPPCPPCPAPEFLGGPSVFLFPPKPKDTLMISRTPEVTCVVVDVSQEDPEVQFNWYVDGVEVHNAKTKPREEQFNSTYRVVSVLTVLHQDWLNGKEYKCKVSNKGLPSSIEKTISKAKGQPREPQVCTLPPSQEEMTKNQVSLSCAVKGFYPSDIAVEWESNGQPENNYKTTPPVLDSDGSFFLVSRLTVDKSRWQEGNVFSCSVMHEALHNHYTQKSLSLSLG light 1: QIVLSQSPAILSASPGEKVTMTCRASSSVSYIHWFQQKPGSSPKPWIYATSNLASGVPVRFSGSGSGTSYSLTISRVEAEDAATYYCQQWTSNPPTFGGGTKLEIKRTVAAPSVFIFPPSDEQLKSGTASVVCLLNNFYPREAKVQWKVDNALQSGNSQESVTEQDSKDSTYSLSSTLTLSKADYEKHKVYACEVTHQGLSSPVTKSFNRGEC light 2: DIVMTQSPDSLAVSLGERATINCKSSQSLLNSRTRKNYLAWYQQKPGQPPKLLIYWASTRQSGVPDRFSGSGSGTDFTLTISSLQAEDVAVYYCTQSHTLRTFGGGTKVEIKPDIQNPDPAVYQLRDSKSSDKSVCLFTDFDSQTQVSQSKDSDVYITDKCVLDMRSMDFKSNSAVAWSQKSDFACANAFQNSIIPEDTFFPSPESS	46.8	0.52	1.25	0.6	0.8	11.4	13.5	0.2	0.4	–	–	–	–
W3278-U3T2.F18R-1.uIgG4.SP (bispecific antibody, Human IgG4 (S228P) knobs-into-holes, same F18R-1 format as m3, so L1 probably stands twice; also called W3278-U3T2.F18R-1.ulgG4.SP) heavy 1: EVQLVESGGGLVQPGRSLRLSCAASGFTFNDYAMHWVRQAPGKGLEWVSTISWNSGSIGYADSVKGRFTISRDNAKKSLYLQMNSLRAEDTALYYCAKDIQYGNYYYGMDVWGQGTTVTVSSASTKGPSVFPLAPCSRSTSESTAALGCLVKDYFPEPVTVSWNSGALTSGVHTFPAVLQSSGLYSLSSVVTVPSSSLGTKTYTCNVDHKPSNTKVDKRVGGGGSGGGGSQVQLVQSGAEVKKPGSSVKVSCKASGYSFTTYYIHWVRQAPGQGLEWMGWIFPGNDNIKYSEKFKGRVTITADKSTSTAYMELSSLRSEDTAVYYCAIDSVSIYYFDYWGQGTLVTVLEDLKNVFPPEVAVFEPSEAEISHTQKATLVCLATGFYPDHVELSWWVNGKEVHSGVCTDPQPLKEQPALQDSRYALSSRLRVSATFWQNPRNHFRCQVQFYGLSENDEWTQDRAKPVTQIVSAEAWGRYGPPCPPCPAPEFLGGPSVFLFPPKPKDTLMISRTPEVTCVVVDVSQEDPEVQFNWYVDGVEVHNAKTKPREEQFNSTYRVVSVLTVLHQDWLNGKEYKCKVSNKGLPSSIEKTISKAKGQPREPQVYTLPPCQEEMTKNQVSLWCLVKGFYPSDIAVEWESNGQPENNYKTTPPVLDSDGSFFLYSRLTVDKSRWQEGNVFSCSVMHEALHNHYTQKSLSLSLG heavy 2: EVQLVESGGGLVQPGRSLRLSCAASGFTFNDYAMHWVRQAPGKGLEWVSTISWNSGSIGYADSVKGRFTISRDNAKKSLYLQMNSLRAEDTALYYCAKDIQYGNYYYGMDVWGQGTTVTVSSASTKGPSVFPLAPCSRSTSESTAALGCLVKDYFPEPVTVSWNSGALTSGVHTFPAVLQSSGLYSLSSVVTVPSSSLGTKTYTCNVDHKPSNTKVDKRVESKYGPPCPPCPAPEFLGGPSVFLFPPKPKDTLMISRTPEVTCVVVDVSQEDPEVQFNWYVDGVEVHNAKTKPREEQFNSTYRVVSVLTVLHQDWLNGKEYKCKVSNKGLPSSIEKTISKAKGQPREPQVCTLPPSQEEMTKNQVSLSCAVKGFYPSDIAVEWESNGQPENNYKTTPPVLDSDGSFFLVSRLTVDKSRWQEGNVFSCSVMHEALHNHYTQKSLSLSLG light 1: not shown light 2: not shown light 3: DIVMTQSPDSLAVSLGERATINCKSSQSLLNSRTRKNYLAWYQQKPGQPPKLLIYWASTRKSGVPDRFSGSGSGTDFTLTISSLQAEDVAVYYCTQSFILRTFGGGTKVEIKPDIQNPDPAVYQLRDSKSSDKSVCLFTDFDSQTQVSQSKDSDVYITDKCVLDMRSMDFKSNSAVAWSQKSDFACANAFQNSIIPEDTFFPSPESS	–	–	–	–	–	–	–	–	–	26600	536	1300	55400
